For 1 molecule, decrease of co-IP in cells expressing Myc-DISC1-37W against cells expressing Myc-DISC1 results are on record in publication PMC3900104.

The test has as its target endogenous Miro1 of COS7 cells (monkey (endogenous in COS7)). Put plainly: co-IP; COS7 cells co-transfected with FLAG-TRAK1 plus Myc-DISC1 or Myc-DISC1-37W, or empty vectors; IP with Miro1 antibody (endogenous Miro1); for quantification IP buffer with 0.1% SDS.

Sequence of endogenous Miro1 of COS7 cells (monkey (endogenous in COS7)) (Q8IXI2 whole entry): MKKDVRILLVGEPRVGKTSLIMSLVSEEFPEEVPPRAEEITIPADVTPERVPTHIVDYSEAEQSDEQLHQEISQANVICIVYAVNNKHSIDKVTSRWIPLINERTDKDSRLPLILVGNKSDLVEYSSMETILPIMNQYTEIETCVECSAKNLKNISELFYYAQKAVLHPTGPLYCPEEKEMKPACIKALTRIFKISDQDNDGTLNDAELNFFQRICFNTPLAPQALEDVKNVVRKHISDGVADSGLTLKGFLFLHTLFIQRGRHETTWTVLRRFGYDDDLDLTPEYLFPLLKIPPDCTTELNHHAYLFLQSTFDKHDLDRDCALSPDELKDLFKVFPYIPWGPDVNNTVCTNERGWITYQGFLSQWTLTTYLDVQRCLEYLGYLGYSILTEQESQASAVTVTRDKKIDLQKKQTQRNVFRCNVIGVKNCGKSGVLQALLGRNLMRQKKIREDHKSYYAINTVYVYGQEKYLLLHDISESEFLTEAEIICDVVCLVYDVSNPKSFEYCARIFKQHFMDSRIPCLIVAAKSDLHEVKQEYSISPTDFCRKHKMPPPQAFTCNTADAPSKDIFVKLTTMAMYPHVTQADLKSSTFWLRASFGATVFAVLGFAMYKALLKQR

B1: FLAG-tagged TRAK1 (trafficking-protein-Kinesin-binding-1), aa 2-953, in COS7 (natural protein)
chain: ALVFQFGQPVRAQPLPGLCHGKLIRTNACDVCNSTDLPEVEIISLLEEQLPHYKLRADTIYGYDHDDWLHTPLISPDANIDLTTEQIEETLKYFLLCAERVGQMTKTYNDIDAVTRLLEEKERDLELAARIGQSLLKKNKTLTERNELLEEQVEHIREEVSQLRHELSMKDELLQFYTSAAEESEPESVCSTPLKRNESSSSVQNYFHLDSLQKKLKDLEEENVVLRSEASQLKTETITYEEKEQQLVNDCVKELRDANVQIASISEELAKKTEDAARQQEEITHLLSQIVDLQKKAKACAVENEELVQHLGAAKDAQRQLTAELRELEDKYAECMEMLHEAQEELKNLRNKTMPNTTSRRYHSLGLFPMDSLAAEIEGTMRKELQLEEAESPDITHQKRVFETVRNINQVVKQRSLTPSPMNIPGSNQSSAMNSLLSSCVSTPRSSFYGSDIGNVVLDNKTNSIILETEAADLGNDERSKKPGTPGTPGSHDLETALRRLSLRRENYLSERRFFEEEQERKLQELAEKGELRSGSLTPTESIMSLGTHSRFSEFTGFSGMSFSSRSYLPEKLQIVKPLEGSATLHHWQQLAQPHLGGILDPRPGVVTKGFRTLDVDLDEVYCLNDFEEDDTGDHISLPRLATSTPVQHPETSAHHPGKCMSQTNSTFTFTTCRILHPSDELTRVTPSLNSAPTPACGSTSHLKSTPVATPCTPRRLSLAESFTNTRESTTTMSTSLGLVWLLKERGISAAVYDPQSWDRAGRGSLLHSYTPKMAVIPSTPPNSPMQTPTSSPPSFEFKCTSPPYDNFLASKPASSILREVREKNVRSSESQTDVSVSNLNLVDKVRRFGVAKVVNSGRAHVPTLTEEQGPLLCGPPGPAPALVPRGLVPEGLPLRCPTVTSAIGGLQLNSGIRRNRSFPTMVGSSMQMKAPVTLTSGILMGAKLSKQTSLR
As for B1, the decrease of co-IP in cells expressing Myc-DISC1-37W against cells expressing Myc-DISC1 turned out to be 20%.
